Consider 1 substance from publication PMC3471233.

In the experiment the target is GFP-CLASP2 S1234A mutant (human). Description: co-IP.

“Polo-like kinase 1 (Plk1), endogenous (from UniProt P53350 1-603) (natural protein)” registered a reduction of co-immunoprecipitated Plk1 relative to wild type of 40%.
